The supplement of paper PMC10724198
± gives the standard deviation of the averaged measurements.

System: Saccharomyces cerevisiae
Experiment: protein stability index of tFT-peptide fusion (C-terminal peptide) (PSI (0-1 scale)); higher = more stable (slower turnover)
Conditions: genetic background: wild type; temperature: 30 C
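Note: PSI is a weighted mean of sequencing reads over stability bins, variants kept only with over 10 reads, mCherry proximal and sfGFP distal, peptide attached via GGGS linker.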

Row | Sequence | protein stability index
1 | FLFLFGCSPFFG | 0.727 ± 0.057
2 | LPGGECSLKGQQ | 0.701 ± 0.079
3 | VPPCESLSALSS | 0.707 ± 0.034
4 | LPRAGLVLSPLH | 0.661 ± 0.051
5 | SCFTSLLGRRDG | 0.784 ± 0.12
6 | LGFSCHGRPPCS | 0.699 ± 0.085
7 | PPAFFPHSRPLL | 0.598 ± 0.038
8 | PAPPSHLLLPLL | 0.768 ± 0.067
9 | RLPPGATPYPPR | 0.711 ± 0.013
10 | PVTMWAGGKYYV | 0.718 ± 0.088
11 | PGVGRLGRTPVS | 0.6959 ± 0.0054
12 | EVERKNKESGKI | 0.717 ± 0.011
13 | SPPPRATLPRPP | 0.689 ± 0.085
14 | SRFIDLLFPSSP | 0.705 ± 0.0074
15 | GGGEVLFHLRRA | 0.673 ± 0.019
16 | SHPHLSSPPSRP | 0.678 ± 0.055
17 | PEMELEKRNQHN | 0.716 ± 0.015
18 | AEQLALSQLSYV | 0.687 ± 0.0099
19 | FLLIFHSSPLPV | 0.574 ± 0.05
20 | GTRAVSKLNPDA | 0.701 ± 0.02
21 | LPPRPSPPRRPP | 0.666 ± 0.016
22 | AETALGVCGVLC | 0.785 ± 0.11
23 | GGRGVVVGQGAG | 0.705 ± 0.027
24 | GQSRQKNEKKIK | 0.687 ± 0.0091
25 | PVSTINLNIQST | 0.836 ± 0.087
26 | PQPPTPLTPTPP | 0.697 ± 0.089

Row | Sequence | protein stability index
27 | RRPQPPHKTAMP | 0.701 ± 0.078
28 | ESYGIVEEGVYS | 0.652 ± 0.082
29 | VGGGPAALGMWI | 0.689 ± 0.077
30 | WLREDCLLSRGR | 0.7 ± 0.0016
31 | TSLPPNLMRTAA | 0.634 ± 0.04
32 | PLYTSFSPSFYL | 0.669 ± 0.043
33 | DHKKNKIKKKKE | 0.685 ± 0.097
34 | PPRTSPRLLPPP | 0.686 ± 0.0069
35 | PLPPPLPLSSPP | 0.67 ± 0.012
36 | TSPTKSPTTTNN | 0.709 ± 0.039
37 | KFWRCVVVGYGL | 0.641 ± 0.099
38 | SSDNKGLFDTRI | 0.728 ± 0.024
39 | PSPLAPPLPPPS | 0.701 ± 0.015
40 | VSLGRRGDRGLC | 0.719 ± 0.031
41 | PRRLFFFFFLSG | 0.656 ± 0.017
42 | PPPPPAPPPLCY | 0.663 ± 0.045
43 | SLVCGFAVGGFW | 0.659 ± 0.044
44 | LPVPLPYFVSYF | 0.607 ± 0.009
45 | DGQNPVAFGSHG | 0.691 ± 0.057
46 | LLRPPAPPPLPT | 0.642 ± 0.17
47 | GSTLGGMAWGAR | 0.682 ± 0.014
48 | NDGKTKRVKKRR | 0.619 ± 0.065
49 | CVCLGCGGAFAG | 0.696 ± 0.019
50 | VKPVLEILKTKT | 0.663 ± 0.037
51 | SISGTSKDSASC | 0.6677 ± 0.0028
52 | FLLPPPPRASSF | 0.736 ± 0.066

Row | Sequence | protein stability index
53 | GGHRRQGKKFTP | 0.711 ± 0.067
54 | CGVSRIGLAGDV | 0.671 ± 0.039
55 | IDLWGNGRCVEL | 0.701 ± 0.048
56 | WGVSARDPVFKE | 0.654 ± 0.018
57 | SFSLPPSSSPPT | 0.725 ± 0.1
58 | CLIGYFPYRLVL | 0.502 ± 0.025
59 | KPYKTYKIIKRE | 0.6578 ± 0.0028
60 | VREQRLPLARRV | 0.706 ± 0.07
61 | DPRVLPPPPRLP | 0.637 ± 0.02
62 | GWPVSICGSTQN | 0.754 ± 0.058
63 | GRLQRKQRKYKA | 0.719 ± 0.0083
64 | ISVSGLVVSVGP | 0.649 ± 0.011
65 | ASENESDDEKLF | 0.7 ± 0.071
66 | LVRGGHRLSFRL | 0.732 ± 0.015
67 | DPTPLKSLVTRP | 0.64 ± 0.04
68 | KDKKKNQNRKKN | 0.661 ± 0.038
69 | TLCFSFPVPGFL | 0.723 ± 0.1
70 | CVLVVGGPAGGG | 0.575 ± 0.063
71 | GWGCARRRGGRV | 0.683 ± 0.015
72 | AAHLLPSIHGYL | 0.669 ± 0.076
73 | APARASPPPPPP | 0.633 ± 0.012
74 | THVDLGVLVSPE | 0.6698 ± 0.0017
75 | SIFPLSLLLPLP | 0.758 ± 0.05
76 | THVKVNNQARGR | 0.722 ± 0.014
77 | PDCPCVAVCSDI | 0.728 ± 0.032
78 | LFVSCGGCLAMF | 0.687 ± 0.0077

Row | Sequence | protein stability index
79 | PPSLAPPPTSRP | 0.679 ± 0.054
80 | LPSLASPRLIPS | 0.609 ± 0.0066
81 | SGSLFVRIGGMG | 0.754 ± 0.094
82 | GGNKETKITRIE | 0.698 ± 0.011
83 | IALTSVRIPSSP | 0.678 ± 0.047
84 | LPPPPPPPPPPP | 0.60887 ± 2.4e-05
85 | LGSFGLASVDGL | 0.713 ± 0.02
86 | VGWVLGCRGLGW | 0.694 ± 0.067
87 | HYWTTENDWPHG | 0.705 ± 0.025
88 | GNRARRSGITRF | 0.809 ± 0.15
89 | SGGGGGGQVAVG | 0.739 ± 0.1
90 | LGLSFYPPLIIS | 0.559 ± 0.0094
91 | STVESAWPAGPA | 0.712 ± 0.0016
92 | SPPAPSLPTFPP | 0.617 ± 0.096
93 | MVRWGLGRVYGC | 0.786 ± 0.1
94 | TLVPAYRCEWCA | 0.736 ± 0.046
95 | PSFLTGRPISPV | 0.677 ± 0.018
96 | SIRPVRLSWVRL | 0.632 ± 0.0066
97 | LRLHPSPPVPSR | 0.7003 ± 0.0047
98 | FVPLFVFSCSRS | 0.5 ± 0.014
99 | GGRGFRGVLRSN | 0.696 ± 0.069
100 | RNRDKKGDMILK | 0.691 ± 0.0086
101 | LLFLVHGLCFSS | 0.543 ± 0.028
102 | KKEKKQRKKING | 0.672 ± 0.075
103 | RKIRKKRERKGE | 0.714 ± 0.2
104 | PSPPPTPPPPTP | 0.793 ± 0.096

Row | Sequence | protein stability index
105 | TFFGEDVGVVVD | 0.69681 ± 0.00058
106 | FFKNAILFVSCE | 0.548 ± 0.049
107 | GGCEWWAWGRGG | 0.727 ± 0.032
108 | GPPRTRRRSARG | 0.668 ± 0.0068
109 | LPHLFLSVPSSP | 0.665 ± 0.038
110 | PCAPHPPPWVVL | 0.6058 ± 0.0056
111 | SPRHNALHFTLV | 0.644 ± 0.032
112 | SYVYETERNEST | 0.715 ± 0.019
113 | RCLRALGLFARS | 0.719 ± 0.008
114 | PLPAPSPLPSPL | 0.735 ± 0.038
115 | GWRGGGSDGGLR | 0.718 ± 0.086
116 | VGCSSHAFGSSV | 0.686 ± 0.053
117 | PHYCSAYTAGHG | 0.72 ± 0.036
118 | PGSPPPPDTLSP | 0.701 ± 0.034
119 | GAVARFRERALS | 0.525 ± 0.0098
120 | YRLAPGCSFHPT | 0.666 ± 0.028
121 | PPFSPSPPHVCP | 0.673 ± 0.045
122 | LFSRDASSFRFF | 0.658 ± 0.032
123 | QNEKSKQCIKQT | 0.6759 ± 0.0019
124 | PPHPPPVTPHAS | 0.722 ± 0.029
125 | CLVIDDPFLVPF | 0.6988 ± 0.001
126 | ICVYGGRKISPG | 0.6877 ± 0.00097
127 | TTGNTHALSHAH | 0.717 ± 0.055
128 | EGEVGGRWCGRG | 0.676 ± 0.046
129 | GWVGGCGCGRGI | 0.694 ± 0.034
130 | PPSRPSASFALL | 0.743 ± 0.026

Row | Sequence | protein stability index
131 | PGLPGHLPPLPL | 0.62033 ± 0.00011
132 | LRVFPVFSWFDR | 0.678 ± 0.15
133 | VKSMVCQGHLGI | 0.722 ± 0.043
134 | RYCIRDNKSNRN | 0.705 ± 0.051
135 | GGEKEREEEDKE | 0.625 ± 0.056
136 | NNKRNGRIKRKI | 0.738 ± 0.02
137 | WVVGGVRGVWGA | 0.729 ± 0.011
138 | RAITPRHKRLVG | 0.6934 ± 0.0031
139 | YVCCMEGFLKPL | 0.619 ± 0.043
140 | NGDPRVHTAVAR | 0.704 ± 0.054
141 | PFLLVSHESSLE | 0.718 ± 0.0077
142 | PPPHPPLPTFDP | 0.707 ± 0.05
143 | GVVRTSWGEALR | 0.7065 ± 0.0061
144 | ERGKREMRKNLT | 0.681 ± 0.018
145 | LGFFGGGRGAGG | 0.677 ± 0.016
146 | LSPLHSPCLPCP | 0.679 ± 0.039
147 | GGGEGRGGVEYG | 0.64 ± 0.037
148 | GGLNIGIGYSVG | 0.643 ± 0.1
149 | LHLPFLPSLPHP | 0.727 ± 0.042
150 | VVALTSVRSRDV | 0.6759 ± 0.0013
151 | LYTISAGEDELN | 0.699 ± 0.018
152 | YPSTPPPPPHPA | 0.687 ± 0.1
153 | LPPPLVPPLPSP | 0.7017 ± 0.0023
154 | PKTPRFWLLFPA | 0.699 ± 0.022
155 | LWQGGRAFWQPV | 0.679 ± 0.046
156 | VRPPRLSSCLLS | 0.656 ± 0.024

Row | Sequence | protein stability index
157 | GGGGGVGVEGEP | 0.723 ± 0.067
158 | SWVELCSQEVVI | 0.603 ± 0.01
159 | DLGWGRWYVVVG | 0.678 ± 0.0083
160 | VGVSGAGFSWGG | 0.712 ± 0.0095
161 | MCVSSSAGVRQE | 0.638 ± 0.054
162 | LVGFGGGGDGVV | 0.693 ± 0.032
163 | HSTEKGIMLNEY | 0.704 ± 0.19
164 | LRGGGGAGVFFG | 0.6491 ± 0.0025
165 | AVGQGAGSWGWE | 0.691 ± 0.049
166 | GCVGCNRWWPGW | 0.721 ± 0.042
167 | VPVMVVCVPSKE | 0.715 ± 0.035
168 | AVSPISLSDNIG | 0.664 ± 0.018
169 | GVSKALAAAVDA | 0.6874 ± 0.0061
170 | PGSKLGPAASRG | 0.663 ± 0.071
171 | LLPSSLPFPPLR | 0.72 ± 0.06
172 | GLVGCDPPPPAF | 0.72 ± 0.04
173 | SSPPSARSPPPP | 0.717 ± 0.076
174 | CLVDSSSFSLIF | 0.742 ± 0.065
175 | SFVFRLGEVGSS | 0.603 ± 0.12
176 | PPSAPLPTLLHH | 0.722 ± 0.094
177 | PRRSPPCSTPPP | 0.726 ± 0.077
178 | IKKKKRRKEQEK | 0.7477 ± 0.0035
179 | LRSLNIVGTTAL | 0.66 ± 0.043
180 | RFRVKSYLYFCP | 0.614 ± 0.03
181 | GHLCVPWFGLVL | 0.659 ± 0.11
182 | EATCSPCPTRVV | 0.621 ± 0.012

Row | Sequence | protein stability index
183 | GKRYLIKKRKKT | 0.698 ± 0.021
184 | NKKTKNNKGNKQ | 0.728 ± 0.063
185 | AVWLEAVSVSLS | 0.612 ± 0.012
186 | ICMGSLLYVGPC | 0.5515 ± 0.0034
187 | DTPIGMPLNVTR | 0.691 ± 0.061
188 | GIKTRTTRVRGE | 0.706 ± 0.018
189 | IVSPGSLAGCSV | 0.675 ± 0.034
190 | MVRNCPYSLSFL | 0.734 ± 0.07
191 | DAKPNMATGLSI | 0.703 ± 0.027
192 | SRKASWECVRGG | 0.699 ± 0.015
193 | ASWEARGWLGWA | 0.794 ± 0.05
194 | NKKKEKKKNEAK | 0.684 ± 0.016
195 | LSGPLILHLTSL | 0.693 ± 0.057
196 | YASDGNSRLRAN | 0.691 ± 0.02
197 | SFDFRKGDPTSD | 0.667 ± 0.02
198 | GWVRCGGGAGVG | 0.622 ± 0.056
199 | WCGNGFVKKGGL | 0.655 ± 0.007
200 | VYTIHECADMLY | 0.712 ± 0.045
201 | LPSPLGSSIFSN | 0.693 ± 0.015
202 | PNPTPYRRPCPP | 0.6846 ± 0.0041
